Assays:
[1] = biological target: His-tagged BRISC labelled with RED-tris-NTA dye (human) (UniProt P46736); test: spectral shift (Dianthus); as a16, labelled His-BRISC first incubated with 100 uM FX-171-C (1% DMSO) for 15 min at RT
[2] = biological target: His-tagged BRISC labelled with RED-tris-NTA dye (human) (UniProt P46736); test: spectral shift (Dianthus); as a16, labelled His-BRISC first incubated with 100 uM JMS-175-2 (1% DMSO) for 15 min at RT
[3] = biological target: His-tagged BRISC labelled with RED-tris-NTA dye (human) (UniProt P46736); test: spectral shift (Dianthus); 12.5 nM RED-tris-NTA labelled His-BRISC, SHMT2(A285T) titrated 46 uM to 1.4 nM, no compound (1% DMSO); 25 mM HEPES pH 7.5, 150 mM NaCl, 1 mM DTT, 0.005% Tween-20, 25 °C; one-site total binding

Substance: SHMT2ΔN(A285T) (residues 18–504) (from UniProt P34897 18-504) (enzyme)
- KD after incubation with FX-171-C [1]: 3600 nM
- KD after incubation with JMS-175-2 [2]: 700 nM
- Kd [3]: 400 nM
